Several values for one entry are separate records, joined by “and”; a condition that tells them apart may be missing. Equal entries are not always repeated. Where two headings read alike, the source gives them in different places.
Columns and labels:
AtSHMT2 [1] = molecular target: T1, AtSHMT2 (Arabidopsis thaliana, UniProt Q94C74); test: Competitive binding assay vs 5-formyl-THF, quinonoid intermediate absorbance; conditions: AtSHMT2, 20 mM KPi pH 8.0, 30 °C, glycine 10 mM, 5-formyl-THF varied; read-out: Ki (inhibition constant, antifolate binding to the enzyme-glycine complex)
T1 construct: the protein N-truncated at E41; The open reading frames coding for AtSHMT2 41–517 fragment; His6 (N, cleaved yes); made in house; host or cells: E. coli BL21 Gold
T1 sequence (Q94C74 41-517): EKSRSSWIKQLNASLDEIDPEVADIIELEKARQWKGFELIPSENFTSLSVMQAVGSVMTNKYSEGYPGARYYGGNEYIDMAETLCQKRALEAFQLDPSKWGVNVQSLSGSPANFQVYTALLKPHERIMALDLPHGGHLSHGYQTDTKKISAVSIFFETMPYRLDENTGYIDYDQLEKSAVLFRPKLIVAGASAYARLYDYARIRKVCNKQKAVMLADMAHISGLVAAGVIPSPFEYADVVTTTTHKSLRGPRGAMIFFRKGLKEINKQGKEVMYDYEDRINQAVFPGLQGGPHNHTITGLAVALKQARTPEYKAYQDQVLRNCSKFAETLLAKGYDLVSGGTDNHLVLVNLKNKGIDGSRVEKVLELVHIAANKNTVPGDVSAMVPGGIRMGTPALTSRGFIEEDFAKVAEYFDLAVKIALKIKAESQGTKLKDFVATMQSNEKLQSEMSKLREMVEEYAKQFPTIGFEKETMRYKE
Excerpt: (§1) In this system, the obtained Ki values refer to binding of the antifolates to the enzyme-glycine complex.
(§2) Secondary plots of slopes as functions of antifolate concentrations were obtained from fitting of inhibition data (Fig. S2). Intercept on the X-axis gives an estimate of the inhibition constant (Ki) related to antifolate binding to the enzyme-glycine complex. Since it is known that the mitochondrial matrix has an alkaline pH (pH 8[68]) as compared to the cytosol (pH 7.3[68]), inhibition measurements were performed in 20 mM KPi buffer at pH 8.0 for AtSHMT2 and pH 7.3 for AtSHMT4 at 30 °C. […] Units of slopes are μM.
(§3) Inhibition assays were performed using 5 μM enzyme solutions. All assays were carried out at 30 °C in 20 mM KPi buffer at either pH 8.0, in the case of AtSHMT2, or pH 7.3 in the case of AtSHMT4. Methotrexate was dissolved in pure DMSO.
(§4) The intermediate develops when both ligands bind to SHMT, forming an enzyme-glycine-folate ternary complex. […] Data were analyzed to obtain estimates of the dissociation constant (Kd) and αKd (in the presence of a saturating concentration of the other ligand) for both ligands, as reported in[31].
(§5) The obtained data were used to produce double reciprocal plots and fitted to linear equations. […] Fitting of data was performed with the software PRISM (GraphPad, La Jolla, CA, USA). All experiments were performed in triplicate using a Hewlett-Packard 8453 diode-array spectrophotometer (Agilent Technologies, Santa Clara, CA).
(§6) Absorbance at 505 nm (AtSHMT2) or 500 nm (AtSHMT4) from the quinonoid intermediate formed
(§7) measured at equilibrium. Right-side charts show double reciprocal plots of data shown in left-side panels ﬁtted to a […]

AtSHMT4 [2] = molecular target: T2, AtSHMT4 (Arabidopsis thaliana, UniProt O23254); test: as above; conditions: AtSHMT4, 20 mM KPi pH 7.3, 30 °C, glycine 10 mM, 5-formyl-THF varied; read-out: Ki (inhibition constant, antifolate binding to the enzyme-glycine complex)
T2 construct: The open reading frames coding for AtSHMT2 41–517 fragment and full-length AtSHMT4 were amplified; His6 (N, cleaved yes); made in house; host or cells: E. coli BL21 Gold
T2 sequence (O23254 1-471): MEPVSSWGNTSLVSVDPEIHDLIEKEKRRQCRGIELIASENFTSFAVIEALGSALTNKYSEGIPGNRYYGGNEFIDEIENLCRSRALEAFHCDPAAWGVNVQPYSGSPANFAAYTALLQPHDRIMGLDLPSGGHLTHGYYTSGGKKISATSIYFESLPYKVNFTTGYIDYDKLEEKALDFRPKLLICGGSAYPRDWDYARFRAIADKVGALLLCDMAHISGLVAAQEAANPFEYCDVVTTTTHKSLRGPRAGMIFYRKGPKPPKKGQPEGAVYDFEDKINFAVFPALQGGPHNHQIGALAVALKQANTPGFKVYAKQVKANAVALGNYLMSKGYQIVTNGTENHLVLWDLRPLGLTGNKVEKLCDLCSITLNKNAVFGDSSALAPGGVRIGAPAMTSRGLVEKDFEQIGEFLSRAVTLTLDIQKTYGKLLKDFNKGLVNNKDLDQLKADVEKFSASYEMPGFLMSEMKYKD
Excerpt: as §1, §2, §3, §4, §5, §6, §7

hcSHMT = conditions: cited from earlier work
[3] = set-up: method as in PMID 9067281; conditions: PTX (or its polyglutamylated forms); cited from earlier work
AtSHMT2 [4] = molecular target: T1, AtSHMT2; test: SHMT forward reaction (serine + THF), coupled assay, initial velocity; format: biochemical; conditions: read-out: KM THF; AtSHMT2, pH 6.5, 30 mM L-serine fixed, 30 °C
Description: (§8) Figure 2 Dependence of AtSHMT2 and AtSHMT4 activity on pH. The initial velocity of the SHMT forward reaction was measured at different pH values with AtSHMT2 and AtSHMT4 (0.2 μM) using a fixed concentration of one substrate while varying the concentration of the other substrate. The fixed L-serine concentration was saturating. […] All experimental points are the average ± standard deviation of three independent measurements. […] Reactions were carried out at 30 °C.
(§9) Activities were measured at different pH values (6.0, 7.0, 8.5 and 9.5). For pH 6.0, 7.0 and 8.5, the assays were performed in 20 mM phosphate buffer. Measurements at pH 9.5 were performed in a mixture of 50 mM MES, 50 mM HEPES, and 50 mM CHES and the final pH was adjusted with KOH.

AtSHMT4 [5] = molecular target: T2, AtSHMT4; test: as above; format: biochemical; conditions: read-out: KM THF, 30 °C
Description: as §8, §9

AtSHMT3 = system: AtSHMT3; set-up: method as in PMID 20518745; conditions: read-out: KM for THF; cited from earlier work
[6] = substrate: N[C@@H](CO)C(=O)O; test: purified protein, by the assay type; format: biochemical, Arabidopsis thaliana; conditions: 30 °C
[7] = other: AtSHMT4, pH 6.5, 30 µM THF fixed, pH 6.5
[8] = other: AtSHMT4, pH 7, 30 µM THF fixed, pH 7.0
[9] = other: AtSHMT4, pH 8, 50 µM THF fixed, pH 8.0
[10] = other: AtSHMT4, pH 8.5, 80 µM THF fixed, pH 8.5
[11] = other: AtSHMT4, pH 9.5, 100 µM THF fixed, pH 9.5
[12] = other: AtSHMT2, pH 6.5, 180 µM THF fixed, pH 6.5
[13] = other: AtSHMT2, pH 7, 180 µM THF fixed, pH 7.0
[14] = other: AtSHMT2, pH 8, 180 µM THF fixed, pH 8.0
[15] = other: AtSHMT2, pH 8.5, 180 µM THF fixed, pH 8.5
[16] = other: AtSHMT2, pH 9.5, 180 µM THF fixed, pH 9.5

Molecule: CN(Cc1cnc2nc(N)nc(N)c2n1)c1ccc(C(=O)N[C@@H](CCC(=O)O)C(=O)O)cc1 [MTX, methotrexate]
- Ki (AtSHMT2 [1]): 270 µM
- Ki (AtSHMT4 [2]): 179 µM
- Ki (hcSHMT; ref Paiardini et al.[45], read-out: KiMTX (apparent inhibition constant)): 201 µM

Molecule: Nc1nc2[nH]cc(CCc3ccc(C(=O)N[C@@H](CCC(=O)O)C(=O)O)cc3)c2c(=O)[nH]1 [PTX, pemetrexed]
- Ki (AtSHMT2 [1]): 119 µM
- Ki (AtSHMT4 [2]): 95 µM and 95.1 µM
- Ki (hcSHMT; ref Daidone et al.[26], read-out: KiPTX (inhibition constant)): 19.1 µM
- Intracellular concentration [3]: 10 to 30 µM

Molecule: tetrahydrofolate [THF]
- Km (AtSHMT2 [4]): 83.6 ± 8.1 µM
- Km (AtSHMT4 [5]; AtSHMT4, pH 6.5, 30 mM L-serine fixed): 7.87 ± 1.62 µM
- Km (AtSHMT4 [5]; AtSHMT4, pH 7, 30 mM L-serine fixed): 15 ± 1.87 µM
- Km (AtSHMT4 [5]; AtSHMT4, pH 8, 30 mM L-serine fixed): 23.8 ± 3.99 µM
- Km (AtSHMT4 [5]; AtSHMT4, pH 8.5, 30 mM L-serine fixed): 33.8 ± 5.63 µM
- Km (AtSHMT3): 218 µM

B1: AtSHMT4 (Arabidopsis thaliana) (protein)
chain: MEPVSSWGNTSLVSVDPEIHDLIEKEKRRQCRGIELIASENFTSFAVIEALGSALTNKYSEGIPGNRYYGGNEFIDEIENLCRSRALEAFHCDPAAWGVNVQPYSGSPANFAAYTALLQPHDRIMGLDLPSGGHLTHGYYTSGGKKISATSIYFESLPYKVNFTTGYIDYDKLEEKALDFRPKLLICGGSAYPRDWDYARFRAIADKVGALLLCDMAHISGLVAAQEAANPFEYCDVVTTTTHKSLRGPRAGMIFYRKGPKPPKKGQPEGAVYDFEDKINFAVFPALQGGPHNHQIGALAVALKQANTPGFKVYAKQVKANAVALGNYLMSKGYQIVTNGTENHLVLWDLRPLGLTGNKVEKLCDLCSITLNKNAVFGDSSALAPGGVRIGAPAMTSRGLVEKDFEQIGEFLSRAVTLTLDIQKTYGKLLKDFNKGLVNNKDLDQLKADVEKFSASYEMPGFLMSEMKYKD
notes: The open reading frames coding for AtSHMT2 41–517 fragment and full-length AtSHMT4 were amplified; His6 (N, cleaved yes); made in house; host or cells: E. coli BL21 Gold
- Km [6, 7]: 2560 ± 260 µM
- kcat/Km [6, 7]: 4630 M⁻¹ s⁻¹
- Km [6, 8]: 540 ± 50 µM
- kcat/Km [6, 8]: 30000 M⁻¹ s⁻¹
- Km [6, 9]: 300 ± 20 µM
- kcat/Km [6, 9]: 57900 M⁻¹ s⁻¹
- Km [6, 10]: 240 ± 20 µM
- kcat/Km [6, 10]: 81500 M⁻¹ s⁻¹
- Km [6, 11]: 200 ± 20 µM
- kcat/Km [6, 11]: 90800 M⁻¹ s⁻¹

B2: AtSHMT2 (Arabidopsis thaliana) (protein)
chain: EKSRSSWIKQLNASLDEIDPEVADIIELEKARQWKGFELIPSENFTSLSVMQAVGSVMTNKYSEGYPGARYYGGNEYIDMAETLCQKRALEAFQLDPSKWGVNVQSLSGSPANFQVYTALLKPHERIMALDLPHGGHLSHGYQTDTKKISAVSIFFETMPYRLDENTGYIDYDQLEKSAVLFRPKLIVAGASAYARLYDYARIRKVCNKQKAVMLADMAHISGLVAAGVIPSPFEYADVVTTTTHKSLRGPRGAMIFFRKGLKEINKQGKEVMYDYEDRINQAVFPGLQGGPHNHTITGLAVALKQARTPEYKAYQDQVLRNCSKFAETLLAKGYDLVSGGTDNHLVLVNLKNKGIDGSRVEKVLELVHIAANKNTVPGDVSAMVPGGIRMGTPALTSRGFIEEDFAKVAEYFDLAVKIALKIKAESQGTKLKDFVATMQSNEKLQSEMSKLREMVEEYAKQFPTIGFEKETMRYKE
notes: the protein N-truncated at E41; The open reading frames coding for AtSHMT2 41–517 fragment; His6 (N, cleaved yes); made in house; host or cells: E. coli BL21 Gold
- Km [6, 12]: 11650 ± 2030 µM
- kcat/Km [6, 12]: 450 M⁻¹ s⁻¹
- Km [6, 13]: 8050 ± 1360 µM
- kcat/Km [6, 13]: 1010 M⁻¹ s⁻¹
- Km [6, 14]: 2860 ± 300 µM
- kcat/Km [6, 14]: 4530 M⁻¹ s⁻¹
- Km [6, 15]: 1780 ± 220 µM
- kcat/Km [6, 15]: 11600 M⁻¹ s⁻¹
- Km [6, 16]: 710 ± 90 µM
- kcat/Km [6, 16]: 30700 M⁻¹ s⁻¹

— PMC6928210 (Scientific Reports, 2019)
